{"source": "patent US20110135647", "molecular_target": "T1, C-terminal recombinant protein of F3374 (437-730 amino acids, His-tag)", "T1 chain": "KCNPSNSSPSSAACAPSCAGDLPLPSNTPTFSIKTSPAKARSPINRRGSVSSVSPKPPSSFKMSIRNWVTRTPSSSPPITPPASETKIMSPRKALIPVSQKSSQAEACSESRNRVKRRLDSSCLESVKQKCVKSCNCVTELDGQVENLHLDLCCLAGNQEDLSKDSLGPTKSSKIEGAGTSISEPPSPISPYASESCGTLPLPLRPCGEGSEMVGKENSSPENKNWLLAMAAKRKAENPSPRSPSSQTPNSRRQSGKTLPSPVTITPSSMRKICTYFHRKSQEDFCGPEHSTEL"}
{"protein": "full-length recombinant protein of AURKB (Upstate) (protein) MAQKENSYPWPYGRQTAPSGLSTLPQRVLRKEPVTPSALVLMSRSNVQPTAAPGQKVMENSSGTPDILTRHFTIDDFEIGRPLGKGKFGNVYLAREKKSHFIVALKVLFKSQIEKEGVEHQLRREIEIQAHLHHPNILRLYNYFYDRRRIYLILEYAPRGELYKELQKSCTFDEQRTATIMEELADALMYCHGKKVIHRDIKPENLLLGLKGELKIADFGWSVHAPSLRRKTMCGTLDYLPPEMIEGRMHNEKVDLWCIGVLCYELLVGNPPFESASHNETYRRIVKVDLKFPASVPMGAQDLISKLLRHNPSERLPLAQVSAHPWVRANSRRVLPPSALQSVA", "values": [{"measurement": "in vitro kinase assay (32P, autoradiography)", "value": "found phosphorylation of the F3374 protein by AURKB in vitro"}]}
